Results published in US12410253B2, “Compositions comprising anti-NRP2 antibodies” (aTyr Pharma, Inc., priority 2019, dated 2025).
“Also recorded” adds a separate entry of the source.

T1: Human NRP2 (aa23-855) (Homo sapiens, UniProt O60462)
T1 construct: Human NRP2 (aa23-855)
T1 sequence (O60462 23-855 isoform O60462-3): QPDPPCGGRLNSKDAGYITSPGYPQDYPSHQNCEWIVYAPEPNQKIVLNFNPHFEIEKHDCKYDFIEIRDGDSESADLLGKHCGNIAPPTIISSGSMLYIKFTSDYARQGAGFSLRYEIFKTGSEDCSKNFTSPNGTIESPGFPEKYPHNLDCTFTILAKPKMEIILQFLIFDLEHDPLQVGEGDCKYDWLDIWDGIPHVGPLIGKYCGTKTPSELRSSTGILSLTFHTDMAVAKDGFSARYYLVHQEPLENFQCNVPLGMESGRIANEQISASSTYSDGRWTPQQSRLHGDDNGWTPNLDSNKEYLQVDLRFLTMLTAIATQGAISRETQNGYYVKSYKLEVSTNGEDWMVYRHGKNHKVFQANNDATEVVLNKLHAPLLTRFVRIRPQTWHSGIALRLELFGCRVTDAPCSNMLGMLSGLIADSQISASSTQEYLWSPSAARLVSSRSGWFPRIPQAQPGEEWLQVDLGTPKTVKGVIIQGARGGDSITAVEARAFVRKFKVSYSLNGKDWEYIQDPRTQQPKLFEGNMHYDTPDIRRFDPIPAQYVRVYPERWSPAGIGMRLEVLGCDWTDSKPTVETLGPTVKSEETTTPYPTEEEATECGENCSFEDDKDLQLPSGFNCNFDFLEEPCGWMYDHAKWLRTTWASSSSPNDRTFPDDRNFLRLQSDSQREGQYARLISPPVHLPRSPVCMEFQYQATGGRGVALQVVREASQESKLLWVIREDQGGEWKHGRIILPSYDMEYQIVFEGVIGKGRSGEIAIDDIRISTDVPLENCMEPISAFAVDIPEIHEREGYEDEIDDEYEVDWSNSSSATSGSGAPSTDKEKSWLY

T2: NRP2/FLT4(VEGFR3) (Homo sapiens, UniProt O60462)
T2 construct: The complete extracellular domain and transmembrane helices of NRP2a (version 2), NRP2b (version 5); expressed in transfected cells; host or cells: Expi293, transient co-transfection
T2 sequence (O60462 23-859 isoform O60462-3 limits assumed): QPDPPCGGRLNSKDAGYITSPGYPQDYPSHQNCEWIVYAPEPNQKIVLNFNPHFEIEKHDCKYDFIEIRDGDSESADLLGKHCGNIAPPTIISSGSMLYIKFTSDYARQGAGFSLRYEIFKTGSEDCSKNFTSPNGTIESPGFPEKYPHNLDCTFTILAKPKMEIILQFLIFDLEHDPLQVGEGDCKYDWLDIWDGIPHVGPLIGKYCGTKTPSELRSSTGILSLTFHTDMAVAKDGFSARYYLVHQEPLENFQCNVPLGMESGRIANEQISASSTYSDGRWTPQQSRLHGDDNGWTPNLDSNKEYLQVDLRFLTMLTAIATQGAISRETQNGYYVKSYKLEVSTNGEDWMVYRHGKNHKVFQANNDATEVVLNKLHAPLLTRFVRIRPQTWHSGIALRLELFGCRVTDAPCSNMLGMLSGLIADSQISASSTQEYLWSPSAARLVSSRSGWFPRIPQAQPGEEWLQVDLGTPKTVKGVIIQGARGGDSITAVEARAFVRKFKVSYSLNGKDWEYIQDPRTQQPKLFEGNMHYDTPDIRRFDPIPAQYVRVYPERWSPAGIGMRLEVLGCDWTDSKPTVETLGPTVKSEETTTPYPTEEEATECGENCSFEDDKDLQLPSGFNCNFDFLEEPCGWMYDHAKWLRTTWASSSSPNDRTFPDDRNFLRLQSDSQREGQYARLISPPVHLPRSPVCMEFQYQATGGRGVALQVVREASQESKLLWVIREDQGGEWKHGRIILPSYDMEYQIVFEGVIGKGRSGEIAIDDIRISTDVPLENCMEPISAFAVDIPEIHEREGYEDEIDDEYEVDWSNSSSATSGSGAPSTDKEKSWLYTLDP

B1: aNRP2-14v9: humanized, affinity matured anti-NRP2 antibody, target domain a2; VH SEQ ID NO: 53, VL SEQ ID NO: 54 (antibody, V domains shown)
VH: QLQLVESGGGVVQPGRSLRLSCTVSGFSLTSYGVHWVRQAPGKGLEWVGLIWSGGSTDYSPAFISRFTISEDNSKSTVYLQMNSLRAEDTAVYFCARNSYSSGYYAMDYWGQGTTVTVSS
VL: DIQLTQSPSFLSASVGDRVTITCKASQNVGHAVAWYQQKPGKAPKLLIYSASNRYTGVPSRFSGSGSGTEFTLTISSLQPEDFATYYCQQYSRYPPYTFGGGTKVEIK
modifications: Variable heavy chain region; Light chain variable region
B2: aNRP2-28v2/4: mouse surrogate VEGF blocking antibody recognizing mouse NRP2, functional surrogate for aNRP2-10v10; CDRs SEQ ID NOs: 63-68 (antibody, V domains shown)
VH: QSVKESEGGLFKPTDTLTLTCTVSGFSLSTYSISWVRQAPGNGLEWIGIIGDAGGIIYATWAKSRSTITRSTALNTVTLKMTGLTAADTATYFCARDGTAFDIWGPGTLVTVSS
VL: AYDMTQTPASVEVVVGGTVTIKCQASQSIYSKLGWYQQKPGQPPKLLIYRASTLASGVSSRFKGSGSGTEYTLTISGVQCDDAATYYCQQDYSYINVDNIFGGGTEVVVK

Tests used:
MDA-MB-231 cells = conditions: mouse, in vivo
Experimental: The dosing regimen was initiated when the mean tumor volume of all study animals reached 50-100 mm^3.
Treatment Regimen. Twenty (20) NSG mice (Jackson Laboratory, female, 5-6 wks old) were used in this study. The animals were assigned to two study groups of 10 mice randomly. The MDA-MB-231 cell line was prepared for injection as described in the Materials and Methods.
1.25×10^6 cancer cells in PBS with 20% matrigel were injected orthotopically into the mammary fat pad. The day on which the tumor was implanted is designated as Day 0.

Human NRP2 (aa23-855) = molecular target: T1, Human NRP2 (aa23-855); test: SPR binding affinity of anti-NRP2 antibodies to human NRP2 antigen; conditions: KD = kd/ka, Langmuir (1:1) model
Experimental: Anti-NRP2 antibody binding and affinity measurements. […] SPR experiments were conducted on a Bio-Rad ProteOn XPR36 Protein Interaction Array instrument. Biotinylated anti-human antibody (ThermoFisher Cat #7103302100) was immobilized on ProteOn NLC sensor chips. Anti-NRP2 antibodies were subsequently flowed over and captured by the anti-human antibody. Human NRP2 antigen protein was flowed over the captured antibody at varying concentrations (150, 50, 16.67, 5.56, 1.85 nM). The sensor chip surface was regenerated between each analyte run to remove anti-NRP2 antibodies and NRP2 protein. Data was double referenced against a surface with no anti-NRP2 antibody captured (immobilized anti-human antibody only) and a buffer only blank. Affinity constants were derived by globally fitting sensograms to a Langmuir (1:1) interaction model in the ProteOn manager software. For each anti-NRP2 antibody, data from the multiple NRP2 concentrations was fit as a single data set with dissociation rate constant (kd), association rate constant (ka) and Rmax values as global parameters. The reported binding affinity is the equilibrium dissociation constant (KD) calculated from kd/ka. • Running buffer: 50 mM HEPES, 300 mM NaCl, 5 mM CaCl2), 0.005% Tween-20, pH 7.4 • Immobilized antibody: CaptureSelect Human Fab-kappa Kinetics Biotin Conjugate, ThermoFisher Cat #7103302100 • Antigen: Human NRP2 (aa23-855) with C-terminal Avi-, Myc- and His-tags • Regeneration buffer: 10 mM glycine pH 2.0

NRP2/FLT4(VEGFR3) = molecular target: T2, NRP2/FLT4(VEGFR3); test: Split-luciferase receptor dimerization assay, NRP2/FLT4 with VEGF-C; format: cell-based; conditions: antibody 100 nM; ligand induced dimerization
Experimental: (§1) To further extend the assessment of the biological activity of the anti-NRP2 antibodies, their activity was assessed in a receptor dimerization assay. In brief, vectors encoding a split luciferase pBiT1.1 and pBiT2.1 were obtained from Promega corporation (Madison, Wisconsin). The complete extracellular domain and transmembrane helices of NRP2a (version 2), NRP2b (version 5) (See table N1), FLT4 (VEGFR3), KDR (VEGFR2), and plexin A1 (PLXNA1) were cloned into the vectors and screened for optimal orientation, receptor density, and ligand induced dimerization, following established methods. Expi293 cells (Fisher) were transfected at 1 million cells/mL ˜20 hours prior to the assay with NRP2 and a co-receptor at equal mass amounts. Cells were counted, and 100,000 live cells were plated in a well of a white luminometer plate in Live Cell Imaging Solution (Fisher). Nano-Glo assay substrate (Promega) was added, and the plate was read on a Glomax 96 luminometer at room temperature to establish baseline luminescence. Antibodies were added to the well at 100 nM and the plate was again read to establish a new baseline and monitor the effects of the antibodies on spontaneous receptor dimerization. Depending on the receptor pair, typically 200 nM SEMA3F-p95 (aTyr Pharma), 2 nM VEGF-C(R&D Systems, Minnesota), or 2 nM VEGF165 (R&D Systems, Minnesota) were then added and the plate was again read to measure dimerization of receptors. Normalized responses for each individual well were calculated to the time point prior to addition of ligand, then normalized to no-antibody/no-ligand (baseline signal). Replicates were then processed to give average response and standard deviation. Results are summarized in Table E3 below, and shown graphically in FIGS. 3-10.

NRP2/PLXNA1 = test: Split-luciferase receptor dimerization assay, NRP2/PLXNA1 with SEMA3F; format: cell-based, human; conditions: antibody 100 nM; ligand induced dimerization
Experimental: as §1

4T1 tumors = test: 4T1 model of spontaneous metastasis in Balb/c mice; format: in vivo
Experimental: The test antibody dosing regimen was initiated one day before cell injection and animal weights and tumor measurements were recorded three times a week until study termination.
Mouse 4T1 cell line was purchased from ATCC. […] 50,000 cancer cells in PBS were implanted subcutaneously into the right flank of each mouse.
Treatment Regimen. […] The animals were assigned to 3 study groups of 10 mice randomly, and housed as described in the Materials and Methods. The antibody dosing regimen is shown in Table E5 below; in brief animals received intraperitoneal injections of 10 mg/kg of the control IgG antibody, and aNRP2-28 (as described in the Materials and Methods), administered according to the protocol below (Table E5); starting one day before cancer cell implantation until termination on day 23).

B16-F10 tumors = test: B16-F10 mouse melanoma in C57BL/6 mice; format: in vivo
Experimental: Animals and Animal husbandry. All mice were ear tagged for identification purpose. Upon arrival, animals were examined to ensure that they were healthy. The animals were housed in autoclaved solid floor polycarbonate cages. Housing and sanitation were performed according to industry standards. All animal handling was performed in a laminar flow hood located in a clean room. In all experiments, euthanasia criteria were set for an upper limit on subcutaneous tumor volume (usually >2,000 mm^3) and body weight loss (usually >20% body weight loss for an individual during the study). Animal work was performed at either Comparative Biosciences, Inc., 786 Lucerne Dr., Sunnyvale, CA 94085 or at aTyr Pharma, 3545 John Hopkins Court, Suite 250, San Diego, CA 92121. The test antibody dosing regimen was initiated once the mean tumor volume reached 50-100 mm^3. Tumor measurements were recorded two times a week until study termination, as described below.
Tumor monitoring. Once palpable, sub-cutaneous tumors were measured three times a week with a digital caliper. Tumor volumes were calculated using formula: Tumor Volume=length×width×width×1/2
Statistical analysis. Data are expressed as mean±SEM o. In experiments in which animals were euthanized due to tumor burden or body weight loss, the terminal tumor volume was carried forward for statistical analysis. […] Significance of difference over time was tested with a 2-way repeated measures ANOVA followed by Dunnett's post-hoc test. Group comparisons were conducted using 1-way ANOVA (parametric or Kruskal Wallis, as noted in the figure legends). A p value <0.05 was considered significant.
Cell culture and implantation. Mouse B16-F10 cell line was purchased from ATCC.
Treatment Regimen. Thirty (30) C57BL/6 mice (Charles River, female, 6-8 wks old) were used in this study. The animals were assigned to 3 study groups of 10 mice randomly, and housed as described in the Materials and Methods. The antibody dosing regimen is shown in Table E4 below; in brief animals received intraperitoneal injections of the control IgG antibody, positive control antibody (Bevacizumab), and anti-NRP2 antibody (as described in the Materials and Methods), administered according to the protocol below (Table E4).

[1] = tested on: neo-lymphangiogenesis of the cornea; test: Corneal alkali-burn injury model of neovascularization (LYVE-1 staining); format: in vivo, mouse; conditions: IP on Day 0, 3, 7 and 10; Day 14; compared to IgG control; p=0.07
Experimental: Study Design & Treatment Regimen. The study consisted of 40 female C57BL/6 mice separated into four groups. Prior to study, animals were randomized into four groups, 10 mice per group. On Day 0, neovascularization (NV) of the cornea was induced from alkali-burn injury in the eyes of animals under anesthesia. Animals were treated intraperitoneally with control IgG (Group 1), aNRP2-28 (Group 2) and Bevacizumab (Group 3) on post-injury Day 0, 3, 7 and 10. During the in-life phase, animals were monitored with daily clinical observations and weekly body weights. Additionally, ocular assessments of injured eyes were scored and photos taken on post-injury Day 7 and Day 14. All animals were euthanized on Day 14. Injured eyes from all animals were removed and dissected. Whole-mounted corneas were fixed, stained with LYVE-1, and analyzed immunohistochemically to examine the efficacy of Test Articles.

Row | Molecule | body weight (MDA-MB-231 cells) | Kd (Human NRP2 (aa23-855)) [pM] | effect on NRP2-VEGFR3 (FLT4) heterodimerization (in words) (NRP2/FLT4(VEGFR3)) | effect on NRP2-plexin heterodimerization (in words) (NRP2/PLXNA1) | toxicity from animal body weight measurements and observations (4T1 tumors; 10 mg/kg IP) | metastatic nodules in the lung at termination (4T1 tumors; 10 mg/kg IP days -1 to 23, compared to IgG control, p≤0.05) | terminal tumor weights (B16-F10 tumors; 25 mg/kg IP BIW) | toxicity from animal body weight measurements and observations (B16-F10 tumors; 25 mg/kg IP BIW) | tumor growth (tumor volume) (B16-F10 tumors; 25 mg/kg IP BIW, compared to IgG control group, p<0.05 on Day 14, 16 and 19) | anti-tumor activity relative to Bevacizumab (positive control) (B16-F10 tumors; aNRP2-28 25 mg/kg vs Bevacizumab 5 mg/kg, IP BIW) | neo-lymphangiogenesis, % Lyve-1+ area of cornea [1]
1 | N.N.[Cl][Pt][Cl] [cisplatin, Cisplatin] | significant loss in body weight | – | – | – | – | – | – | – | – | – | –
2 | B1 | – | 150 | no significant impact | extremely potent inhibition | – | – | – | – | – | – | –
3 | B2 | – | 59.9 | – | – | no evidence of toxicity | reduction in metastatic nodules in the lung | lowest terminal tumor weights | no evidence of toxicity | tumor growth inhibition | more potent anti-tumor activity | inhibits neo-lymphangiogenesis; also recorded: can inhibit neolymphangiogenesis
